B1: FCHO1 (parent)
chain: DKLALCHLELTRKLQDLIKDVLRY
B2: PLAGL1 (parent)
chain: CKDFLCQFCAQRFGRKDHLTRHTK

Variants of: B1
Assay: protein stability index of a GFP-peptide fusion (GPS, HEK-293T) (PSI 1-6); higher = more stable
Details: c terminus: a fixed tail appended
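Further: lentivirally expressed fusions sorted by FACS into six bins by GFP to DsRed ratio, PSI derived from sequencing read proportions per bin multiplied by bin number.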

Variant	protein stability index
DKLALCHLELTRKLQDLIKDVLCY [R23C]	3.57
DKLALCHLELTRKLQDLIKDVLQY [R23Q]	3.15
DKLALCHLELTRKLQDLIKDVLIY [R23I]	1.47
DKLALCHLELTRKLQDLIKDVLPY [R23P]	1.2
DKLALCHLELTRKLQDLIKDVLLY [R23L]	2.59
DKLALCHLELTRKLQDLIKDVLDY [R23D]	2.08
DKLALCHLELTRKLQDLIKDVLAY [R23A]	3.49
DKLALCHLELTRKLQDLIKDVDRY [L22D]	2.32
DKLALCHLELTRKLQDLIKDVERY [L22E]	2.67
DKLALCHLELTRKLQDLIKDVARY [L22A]	2.73
DKLALCHLELTRKLQDLIKDVTRY [L22T]	1.05
DKLALCHLELTRKLQDLIKDVQRY [L22Q]	2.92
DKLALCHLELTRKLQDLIKDVPRY [L22P]	3.16
DKLALCHLELTRKLQDLIKDVGRY [L22G]	1.68
DKLALCHLELTRKLQDLIKDVSRY [L22S]	2.44
DKLALCHLELTRKLQDLIKDVNRY [L22N]	1.47
DKLALCHLELTRKLQDLIKDVMRY [L22M]	2.35
DKLALCHLELTRKLQDLIKDVKRY [L22K]	1.65
DKLALCHLELTRKLQDLIKDVLRE [Y24E]	3.6
DKLALCHLELTRKLQDLIKDVLRT [Y24T]	2.26
DKLALCHLELTRKLQDLIKDVLRG [Y24G]	2.98
DKLALCHLELTRKLQDLIKDVLRP [Y24P]	1.99
DKLALCHLELTRKLQDLIKDVLRC [Y24C]	2.92
DKLALCHLELTRKLQDLIKDVLRS [Y24S]	1.04
DKLALCHLELTRKLQDLIKDVLRK [Y24K]	2.3
DKLALCHLELTRKLQDLIKDVLRN [Y24N]	2.43
DKLALCHLELTRKLQDLIKDSLRY [V21S]	1.83
DKLALCHLELTRKLQDLIKDYLRY [V21Y]	2.3
DKLALCHLELTRKLQDLIKDTLRY [V21T]	2.53
DKLALCHLELTRKLQDLIKDRLRY [V21R]	2

Variants of: B2
Assay: as above
Details: c terminus: a fixed tail appended

Variant	protein stability index
CKDFLCQECAQRFGRKDHLTRHTK [F8E]	2.62
CKDFLCQQCAQRFGRKDHLTRHTK [F8Q]	2.51
CKDFLCQRCAQRFGRKDHLTRHTK [F8R]	3.32
CKDFLCQTCAQRFGRKDHLTRHTK [F8T]	2.81
CKDFLCQPCAQRFGRKDHLTRHTK [F8P]	2.47
CKDFLCQMCAQRFGRKDHLTRHTK [F8M]	2.19
CKDFLCQFCAGRFGRKDHLTRHTK [Q11G]	2.44
CKDFLCQFCADRFGRKDHLTRHTK [Q11D]	1.75
CKDFLCQFCARRFGRKDHLTRHTK [Q11R]	2.3
CKDFLCQFCAERFGRKDHLTRHTK [Q11E]	2.14
CKDFLCQFCAWRFGRKDHLTRHTK [Q11W]	1.76
CKDFLCQFCAPRFGRKDHLTRHTK [Q11P]	2.07
CKDFLCQFAAQRFGRKDHLTRHTK [C9A]	2.05
CKDFLCQFMAQRFGRKDHLTRHTK [C9M]	1.79
CKDFLCQFLAQRFGRKDHLTRHTK [C9L]	2.22
CKDFLCQFRAQRFGRKDHLTRHTK [C9R]	1.45
CKDFLCQFCMQRFGRKDHLTRHTK [A10M]	1.65
CKDFLCQFCPQRFGRKDHLTRHTK [A10P]	2.03
CKDFLCQFCIQRFGRKDHLTRHTK [A10I]	1.83
CKDFLCQFCFQRFGRKDHLTRHTK [A10F]	1.96
CKDFLCQFCDQRFGRKDHLTRHTK [A10D]	1.87
DKDFLCQFCAQRFGRKDHLTRHTK [C1D]	2.31

Variant	protein stability index
QKDFLCQFCAQRFGRKDHLTRHTK [C1Q]	2.11
PKDFLCQFCAQRFGRKDHLTRHTK [C1P]	2.2
HKDFLCQFCAQRFGRKDHLTRHTK [C1H]	2.02
LKDFLCQFCAQRFGRKDHLTRHTK [C1L]	2.25
YKDFLCQFCAQRFGRKDHLTRHTK [C1Y]	2.44
KKDFLCQFCAQRFGRKDHLTRHTK [C1K]	2.11
CKDFKCQFCAQRFGRKDHLTRHTK [L5K]	2.08
CKDFMCQFCAQRFGRKDHLTRHTK [L5M]	1.9
CKDFVCQFCAQRFGRKDHLTRHTK [L5V]	1.36
CKDFRCQFCAQRFGRKDHLTRHTK [L5R]	1.43
CKDFNCQFCAQRFGRKDHLTRHTK [L5N]	2.23
CKDFACQFCAQRFGRKDHLTRHTK [L5A]	2.02
CKDFECQFCAQRFGRKDHLTRHTK [L5E]	2.07
CKDFSCQFCAQRFGRKDHLTRHTK [L5S]	2.41
CKDFHCQFCAQRFGRKDHLTRHTK [L5H]	1.89
CKDFLCQFCAQRFGCKDHLTRHTK [R15C]	1.82
CKDFLCQFCAQRFGFKDHLTRHTK [R15F]	1.79
CKDFLCQFCAQRFGVKDHLTRHTK [R15V]	2.3
CKDFLCQFCAQRFGRKDQLTRHTK [H18Q]	1.96
CKDFLCQFCAQRFGRKDALTRHTK [H18A]	2.51
CKDFLCQFCAQRFGRKDYLTRHTK [H18Y]	2.45
CKDFLCQFCAQRFGRKDPLTRHTK [H18P]	1.75

Variant	protein stability index
CKDFLCQFCAQRFGRKDNLTRHTK [H18N]	1.97
CKDFLCQFCAQRFGRKDELTRHTK [H18E]	1.96
CKDFLCQFCAQRFGRKDLLTRHTK [H18L]	1.33
CKEFLCQFCAQRFGRKDHLTRHTK [D3E]	1.78
CKYFLCQFCAQRFGRKDHLTRHTK [D3Y]	2.11
CKSFLCQFCAQRFGRKDHLTRHTK [D3S]	1.51
CKHFLCQFCAQRFGRKDHLTRHTK [D3H]	2.07
CKGFLCQFCAQRFGRKDHLTRHTK [D3G]	2.38
CKVFLCQFCAQRFGRKDHLTRHTK [D3V]	2.38
CKDFLLQFCAQRFGRKDHLTRHTK [C6L]	1.99
CKDFLVQFCAQRFGRKDHLTRHTK [C6V]	1.89
CKDFLMQFCAQRFGRKDHLTRHTK [C6M]	1.48
CKDFLPQFCAQRFGRKDHLTRHTK [C6P]	2.38
CKDFLNQFCAQRFGRKDHLTRHTK [C6N]	1.76
CKDFLIQFCAQRFGRKDHLTRHTK [C6I]	1.62
CKDFLKQFCAQRFGRKDHLTRHTK [C6K]	1.4
CWDFLCQFCAQRFGRKDHLTRHTK [K2W]	1.7
CYDFLCQFCAQRFGRKDHLTRHTK [K2Y]	2.05
CTDFLCQFCAQRFGRKDHLTRHTK [K2T]	2.09
CIDFLCQFCAQRFGRKDHLTRHTK [K2I]	1.78
